In patent US20260092110A1 (Kyowa Kirin, published 2026):
Residue numbers refer to the chain shown, from its start. Names may count otherwise.

T1: human MOG (hMOG) expressed on HEK293, Expi293F or L929 cells (human, UniProt Q16653 30-247)
T1 construct: also called hMOG/HEK293; hMOG/HEK293F
T1 chain: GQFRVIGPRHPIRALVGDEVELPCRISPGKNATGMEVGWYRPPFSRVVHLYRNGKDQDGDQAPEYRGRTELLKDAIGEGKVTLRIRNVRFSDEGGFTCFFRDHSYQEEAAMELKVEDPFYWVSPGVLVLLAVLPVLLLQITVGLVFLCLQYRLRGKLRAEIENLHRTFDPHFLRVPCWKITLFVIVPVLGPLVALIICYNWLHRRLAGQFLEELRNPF

T2: cynomolgus monkey MOG (cMOG) expressed on HEK293 cells (cynomolgus monkey, UniProt Q9BGS7 30-247)
T2 construct: also called cMOG/HEK293
T2 sequence: T1 chain with H10Q, K55R, D60E, M111I, G125A

T3: rat MOG (rMOG) expressed on HEK293F cells (rat, UniProt Q63345 28-245)
T3 construct: also called rMOG/HEK293F
T3 sequence: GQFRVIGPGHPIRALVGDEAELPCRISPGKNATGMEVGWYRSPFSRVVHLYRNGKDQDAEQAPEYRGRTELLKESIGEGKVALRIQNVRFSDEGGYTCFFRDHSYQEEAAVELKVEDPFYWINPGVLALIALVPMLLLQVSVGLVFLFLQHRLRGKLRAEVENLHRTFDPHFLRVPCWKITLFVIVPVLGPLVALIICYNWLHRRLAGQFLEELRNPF

B1: MOG01 antibody (anti-MOG human IgG antibody expressed from N5LG4PE_MOG01) (antibody, V domains shown)
VH: QVQLQQSGAGLLKPSETLSLTCAVSGGSFSGYYWTWIRQRPGKGLEWIGEINHRGSTDYNPSLKSRVTMSIDTSKSQFSLNLKSVTAADTAVYYCARAAWGSCYDGTCYPAEYFQYWGQGTLVTVSS
VL: QSALTQPASVSGSPGQSITISCTGTSRDVGGYNYVSWYQQHPGKAPKLMIYDVNNRPSGVSNRFSGSKSGNTASLTISGLQAEDEADYFCSSYTSSSTPVVFGGGTKLTVL
notes: also called anti-MOG01 human IgG antibody; MOG01 IgG4PE
B2: MOG09 antibody (anti-MOG human IgG antibody expressed from N5LG4PE_MOG09) (antibody, V domains shown)
VH: QVQLQESGPGLVKSSETLSLTCAVSGHSISSAYYWGWIRQPPGKGLEWLGSIYHSGNTYYNPSLKSRVTISVDTSKNQFSLRLTSVTAADTAVYYCARGRGYSGYDSGMDVWGQGTTVTVSS
VL: SYVLTQPPSASGTPGQRVTISCSGTSSNIGINSVNWYQQLPGMAPKLVIYSRDQRPSGVPDRFSGSQSGTSASLAINGLQSEDEADYWCSTWDDSLNGWVFGGGTKLTVL
B3: MOG14 antibody (anti-MOG human IgG antibody expressed from N5KG4PE_MOG14) (antibody, V domains shown)
VH: QVQLVQSGAEVKKPGASVKVSCQASGYTFTGDYIHWVRQAPGQGLEYLGWINPDRGFTYYTQKFQGRVTMTRDTSSNTAYMELSSLRSDDTAMYYCTRENPRAYFFDLWGQGTLVTVSS
VL: EIVLTQSPGTLSLSPGERATLSCRASQSISGSYVTWYQQKPGQAPRLLIYATSNRAIGIPDKFSGGGSGRDFTLTINRLEPEDFAVYYCQQSVSSPYTFGQGTKVEIK
B4: iMOG-3Rim1-S32 antibody (VHH-Fc expressed from N5G4PEFc_iMOG-3Rim1-S32) (Fc fusion)
chain: QVQLVESGGGLVQTGGSLRLSCAASGSMFSTMGWFRQAPGNQRELVAIMSSGGTANYADSVKGRFTISGDNVKNTVTLQMNSLNPEDTAVYYCRFTGWVKSSFSTYWGQGTQVTVSS
notes: not shown: Fc region of human IgG4PE
B5: MOG01 scFv-hG4PE (Fc fusion)
chain: QVQLQQSGAGLLKPSETLSLTCAVSGGSFSGYYWTWIRQRPGKGLEWIGEINHRGSTDYNPSLKSRVTMSIDTSKSQFSLNLKSVTAADTAVYYCARAAWGSCYDGTCYPAEYFQYWGQGTLVTVSSGGGGSGGRASGGGGSQSALTQPASVSGSPGQSITISCTGTSRDVGGYNYVSWYQQHPGKAPKLMIYDVNNRPSGVSNRFSGSKSGNTASLTISGLQAEDEADYFCSSYTSSSTPVVFGGGTKLTVL
B6: AVM IgG4PE(R409K)_MOG01dscFv antibody (bispecific antibody)
heavy: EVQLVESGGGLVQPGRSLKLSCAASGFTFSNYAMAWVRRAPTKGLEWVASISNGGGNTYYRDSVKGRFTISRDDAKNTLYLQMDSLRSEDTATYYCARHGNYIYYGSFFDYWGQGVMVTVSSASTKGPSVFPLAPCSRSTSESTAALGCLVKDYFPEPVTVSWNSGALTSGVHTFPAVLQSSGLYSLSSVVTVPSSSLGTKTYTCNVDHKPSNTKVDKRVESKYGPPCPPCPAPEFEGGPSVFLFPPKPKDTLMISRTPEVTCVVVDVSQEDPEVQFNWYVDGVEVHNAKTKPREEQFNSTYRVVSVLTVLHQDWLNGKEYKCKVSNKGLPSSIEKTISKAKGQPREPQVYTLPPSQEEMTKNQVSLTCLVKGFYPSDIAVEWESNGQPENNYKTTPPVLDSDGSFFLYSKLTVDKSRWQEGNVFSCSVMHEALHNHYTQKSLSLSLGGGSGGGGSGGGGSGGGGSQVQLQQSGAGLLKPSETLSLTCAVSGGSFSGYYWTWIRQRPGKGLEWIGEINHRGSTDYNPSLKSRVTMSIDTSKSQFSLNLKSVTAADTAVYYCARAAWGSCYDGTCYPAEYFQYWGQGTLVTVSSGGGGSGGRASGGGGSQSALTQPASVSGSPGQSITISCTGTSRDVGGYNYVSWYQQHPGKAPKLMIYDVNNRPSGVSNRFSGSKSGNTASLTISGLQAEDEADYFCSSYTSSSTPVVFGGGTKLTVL
light: QFVLSQPNSVSTNLGSTVKLSCKRSTGNIGSNYVSWYQQHEGRSPTTMIYRDDKRPDGVPDRFSGSIDRSSDSALLTINNVQTEDEADYFCQSYSSGINIFGGGTKLTVLGQPKAAPSVTLFPPSSEELQANKATLVCLISDFYPGAVTVAWKADSSPVKAGVETTTPSKQSNNKYAASSYLSLTPEQWKSHRSYSCQVTHEGSTVEKTVAPTECS
notes: MOG01 scFv fused to the C-terminus of anti-AVM IgG; also called pCI-AVM-hLG4PE(R409K)_MOG01scFv

Experiments:
[1] = molecular target: T4, extracellular domain protein of rat MOG to which GST is added at the C-terminus (rMOG-GST) (rat); test: SPR Biacore T-100, antibody captured, rMOG-GST analyte
T4 construct: whole construct entry
Procedure: (§1) The antibodies were immobilized on CM5 sensor chips using a Human antibody Capture kit, and the binding abilities were evaluated using rMOG-GST produced in Example 4 as an analyte. The obtained sensorgrams were analyzed with BIA evaluation software, and the dissociation constants (KD values) were thus calculated.

[2] = molecular target: T1, human MOG (hMOG) expressed on HEK293, …; test: flow cytometry on HEK293 cells transiently expressing human MOG; antibody at 10 µg/mL, RPE-labelled goat anti-human antibody; negative control anti-AVM antibody
Procedure: (§2) rMOG/HEK293F, mMOG/IEK293F, cMOG/HEK293 and hMOG/HEK293 cells were suspended in a Staining Buffer (SB) of PBS containing 0.1% NaN₃ and 1% FBS each at a concentration of 5×10⁵ cells/mL and dispensed to a round-bottom 96-well plate (manufactured by Becton Dickinson).
(§3) After centrifugation (2000 rpm, 4° C., two minutes), the supernatants were removed, and the antibodies obtained in Example 6 at 10 μg/mL were added to the pellets. After suspending the pellets, the plate was left to stand at ice temperature for 30 minutes. The supernatants were removed after further centrifugation (2000 rpm, 4° C., two minutes), and the pellets were washed with SB. Then, 1 μg/mL RPE fluorescently labeled goat anti-human antibody (manufactured by […]) was added, and the plate was incubated at ice temperature for 30 minutes.
(§4) After washing with SB, the cells were suspended in SB, and the fluorescence intensities of the cells were measured using a flow cytometer FACS CANTO II (manufactured by Becton Dickinson). As the negative control, an anti-AVM antibody was used.

[3] = molecular target: T2, cynomolgus monkey MOG (cMOG) expressed …; test: flow cytometry on HEK293 cells transiently expressing cynomolgus monkey MOG; antibody at 10 µg/mL, RPE-labelled goat anti-human antibody; negative control anti-AVM antibody
Procedure: as §2, §3, §4

[4] = molecular target: T3, rat MOG (rMOG) expressed on HEK293F …; test: flow cytometry on HEK293 cells transiently expressing rat MOG; antibody at 10 µg/mL, RPE-labelled goat anti-human antibody; negative control anti-AVM antibody
Procedure: as §2, §3, §4

[5] = molecular target: T4, extracellular domain protein of rat MOG …; test: SPR Biacore T-100, antibody captured, rMOG-GST analyte; KD not unique (kd outside range)
Procedure: as §1

[6] = molecular target: T4, extracellular domain protein of rat MOG …; test: SPR Biacore T-100, antibody captured, rMOG-GST analyte; kd outside the measurement range
Procedure: as §1

[7] = molecular target: T2, cynomolgus monkey MOG (cMOG) expressed …; test: flow cytometry on HEK293 cells transiently expressing cynomolgus monkey MOG; RPE-labelled goat anti-human antibody; negative control anti-AVM antibody
[8] = molecular target: T5, extracellular domain protein of human MOG to which GST is added at the C-terminus (hMOG-GST) (human); test: SPR, antibody captured, hMOG-GST analyte
Procedure: as §1
The results of evaluation of the affinities to human MOG are shown in Table 14, and the results of evaluation of the affinities to mouse MOG are shown in Table 15.

[9] = molecular target: T6, extracellular domain protein of mouse MOG to which GST is added at the C-terminus (mMOG-GST) (mouse); test: SPR, antibody captured, mMOG-GST analyte; paragraph 625: ka of MOG01 scFv-hG4PE outside the measurement range
T6 sequence (chain, as listed by the source limits assumed): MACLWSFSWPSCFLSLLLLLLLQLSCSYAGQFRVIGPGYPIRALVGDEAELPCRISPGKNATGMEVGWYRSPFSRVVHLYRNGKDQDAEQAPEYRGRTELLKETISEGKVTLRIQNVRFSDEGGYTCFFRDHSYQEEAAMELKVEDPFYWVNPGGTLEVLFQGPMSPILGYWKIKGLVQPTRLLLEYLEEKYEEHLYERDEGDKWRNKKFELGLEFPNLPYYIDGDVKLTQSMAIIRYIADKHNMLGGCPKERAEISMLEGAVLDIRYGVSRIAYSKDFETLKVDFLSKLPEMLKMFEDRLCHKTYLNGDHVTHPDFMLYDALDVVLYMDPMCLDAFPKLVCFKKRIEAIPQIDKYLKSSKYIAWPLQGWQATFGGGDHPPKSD

[10] = molecular target: T6, extracellular domain protein of mouse …; test: SPR, antibody captured, mMOG-GST analyte
[11] = molecular target: T6, extracellular domain protein of mouse …; test: SPR, antibody captured, mMOG-GST analyte; paragraph 625: KD could not be determined as a unique value
[12] = molecular target: T5, extracellular domain protein of human …; test: SPR, antibody captured, hMOG-GST analyte; ka outside the measurement range
[13] = molecular target: T5, extracellular domain protein of human …; test: SPR, antibody captured, hMOG-GST analyte; KD not unique (ka outside range)
[14] = molecular target: T4, extracellular domain protein of rat MOG …; test: SPR as in Example 8 (antibody captured, rMOG-GST analyte)
Procedure: as §1
Binding of the bispecific antibodies obtained in Example 6 and Example 16 to MOG was evaluated by the same method as that of Example 8.

[15] = molecular target: T4, extracellular domain protein of rat MOG …; test: as above; remark: listed apart in the source
Procedure: as §1

Row | Binder | Kd [1] | koff [1] | kon [1] | binding result [2] | binding result [3] | binding result [4] | other results
1 | B1 | 6.6 nM | 0.00095 s⁻¹ | 140000 M⁻¹ s⁻¹ | binds | binds | binds | 
2 | B2 |  |  | 9000 M⁻¹ s⁻¹ | binds | binds | binds | Kd [5]: 0.021 nM; koff [6]: 1.9e-07 s⁻¹
3 | B3 | 40 nM | 0.00019 s⁻¹ | 4700 M⁻¹ s⁻¹ | binds | binds | binds | 
4 | B4 |  |  |  |  |  |  | binding result [7]: no binding (tested: 10 µg/mL)
5 | B5 |  |  |  |  |  |  | koff [8]: 0.015 s⁻¹; kon [9]: 5.9e+06 M⁻¹ s⁻¹; koff [10]: 0.04 s⁻¹; Kd [11]: 6.9 nM; kon [12]: 4.1e+06 M⁻¹ s⁻¹; Kd [13]: 3.6 nM
6 | B6 |  |  |  |  |  |  | Kd [14]: 200 nM; koff [14]: 0.0049 s⁻¹; kon [14]: 24000 M⁻¹ s⁻¹; Kd [15]: 200 nM; koff [15]: 0.0046 s⁻¹; kon [15]: 23000 M⁻¹ s⁻¹
